This is an account of results in publication PMC4721540, “Selective activators of protein phosphatase 5 target the auto-inhibitory mechanism” (Bioscience Reports, 2015).

B2: PPH-5 (protein phosphatase homologue), PP5 from nematode origin (enzyme, C. elegans, UniProt Q9NES8 1-496, looked up)
chain: MAATITDDIVATVLESIEEKSYEDEKEKAGMIKDEANQFFKDQVYDVAADLYSVAIEIHPTAVLYGNRAQAYLKKELYGSALEDADNAIAIDPSYVKGFYRRATANMALGRFKKALTDYQAVVKVCPNDKDARAKFDECSKIVRRQKFEAAISTDHDKKTVAETLDINAMAIEDSYDGPRLEDKITKEFVLQLIKTFKNQQKLHKKYAFKMLLEFYNYVKSLPTMVEITVPTGKKFTICGDVHGQFYDLCNIFEINGYPSETNPYLFNGDFVDRGSFSVETIFTMIGFKLLYPNHFFMSRGNHESDVMNKMYGFEGEVKAKYTQQMCDMFTETFCWLPLCHLINEKIFVCHGGLFKEDGVTLEDIRKTDRNRQPPDEGIMCDLLWSDPQPINGRSPSKRGVGCQFGPDVTSKWCETNGIEYVVRSHEVKPEGYEMHHNGQCFTVFSAPNYCDQMNNKGAFITITGDNLTPRFTPFDAVPHPKLPPMAYANSLFGFN
notes: PPH-5, the protein phosphatase 5 homologue of C. elegans; also called nematode PPH-5; PPH-5 (C. elegans); source: cloning and purification as described before [32-35]

Assay [1] deals with B2. Kind of assay: AUC; sedimentation velocity with fluorescence detection; 300 nM labelled YFP–Hsp90, 3 μM PPH-5; 40 mM HEPES/KOH, pH 7.5, 20 mM KCl, 1 mM DTT; 20°C, 142000 g, 12 h; P5SAs at maximal soluble concentrations or 60 μM C-terminal Hsp90/DAF-21 peptide added where indicated. Particulars: both partners purified.
In a further assay the target is T1, YFP-CeHsp90/DAF-21 (C. elegans, UniProt Q18688 1-702).
T1 construct: Hsp90 of C. elegans (CeHsp90/DAF-21); Detected in the AUC by YFP fluorescence; also called YFP–Hsp90; YFP-tagged Hsp90; source: cloning and purification as described before [32-35]
The description is as above. Particulars: both partners purified.

B1: C-terminal Hsp90/DAF-21 peptide (AEEDASRMEEVD) (peptide)
peptide: AEEDASRMEEVD
notes: C-terminal peptide of Hsp90/DAF-21 of C. elegans; also called MEEVD peptide; MEEVD-containing peptide; source: bought: Biomatik
Turning to B1, in assay [1], the binding result is on record as “binds”.
Consider B2, for which the binding result with YFP-CeHsp90/DAF-21 is reported as “binds”.
